Experimental data taken from US20250222125A1, “Anti-FGFR2b Antibodies, Conjugates and Methods of Use” (BeiGene, Ltd., priority 2024, published 2025).

B1: BGAm1823: parental murine anti-FGFR2b antibody; VH SEQ ID NO: 28, VL SEQ ID NO: 30 (antibody, V domains shown)
VH: EVQLQQSGAELVKPGASVKISCKASGYAFSIYWMNWVKQRPGKGLEWIGQIYPENGDTNYNGKFKGKATLTADKSSSTAYMHLSSLTSEDSAVYFCARGGFDYWGQGTTLTVSS
VL: NIVMTQSPASLSASVGETVTITCRASENIYSNLAWYQQKQGKSPQLLVYTATNLADGVPSRFSGSGSGTQFSLKINSLQPEDFGSYYCQHFYGILYTFGSGTRLEIK
modifications: Synthetic: VH AA; Synthetic: VL AA
B2: BGAh9179: humanized anti-FGFR2b IgG1 antibody from murine BGAm1371; VH SEQ ID NO: 21, VL SEQ ID NO: 22 (antibody, V domains shown)
VH: QVQLVQSGAEVKKPGASVKVSCKASGYTITDTYIHWVRQAPGQGLEWMGRIDPAEGNTMFASEFQGRVTMTADTSTSTVYMELSSLRSEDTAVYYCARSKIHYDYDEGFAYWGQGTLVTVSS
VL: DIVLTQSPDSLAVSLGERATINCRASESVDDYGYSFLHWYQQKPGQPPKLLIYRASNLESGVPDRFSGSGSGTDFTLTISSLQAEDVAVYYCQQSNQNPRTFGGGTKVEIK
modifications: Synthetic: VH AA; Synthetic: VL AA

Tests used:
Mouse FGFR2b = target: T1, Mouse FGFR2b (Mus musculus, UniProt P21803); experiment: FACS binding on Expi293 cells, mouse FGFR2b (Example 10); conditions: Expi293 cells overexpressing mouse FGFR2b
T1 construct: expressed in transfected cells; host or cells: Expi293
T1 sequence (P21803 22-707 isoform P21803-2 limits assumed): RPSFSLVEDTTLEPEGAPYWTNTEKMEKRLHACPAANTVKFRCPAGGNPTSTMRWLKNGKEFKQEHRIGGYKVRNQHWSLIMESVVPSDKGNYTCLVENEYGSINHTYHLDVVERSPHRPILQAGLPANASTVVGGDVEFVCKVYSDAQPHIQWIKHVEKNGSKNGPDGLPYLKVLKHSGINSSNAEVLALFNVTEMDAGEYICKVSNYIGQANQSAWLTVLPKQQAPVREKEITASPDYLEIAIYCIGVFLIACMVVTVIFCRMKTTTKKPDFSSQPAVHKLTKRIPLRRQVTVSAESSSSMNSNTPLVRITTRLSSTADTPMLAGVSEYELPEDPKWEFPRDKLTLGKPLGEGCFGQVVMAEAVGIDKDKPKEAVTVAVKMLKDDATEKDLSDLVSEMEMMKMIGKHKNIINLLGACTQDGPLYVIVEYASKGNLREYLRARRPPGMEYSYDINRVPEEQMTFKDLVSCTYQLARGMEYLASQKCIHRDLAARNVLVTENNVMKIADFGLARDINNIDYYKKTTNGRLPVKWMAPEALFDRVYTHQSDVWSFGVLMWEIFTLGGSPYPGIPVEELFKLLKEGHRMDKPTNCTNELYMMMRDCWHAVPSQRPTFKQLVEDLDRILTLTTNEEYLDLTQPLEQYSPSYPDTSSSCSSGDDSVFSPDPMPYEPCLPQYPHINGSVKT
Protocol: (§1) To evaluate the binding activity of anti-FGFR2b antibodies to native FGFR2b on living cells, Expi293 cells were engineered to overexpress human FGFR2b, cyno FGFR2b, mouse FGFR2b, or human FGFR2c. Expi293 cells expressing antigens were seeded in 96-well plates, and were incubated with serially diluted anti-FGFR2b antibodies. Goat anti-human IgG [Alexa Fluor® 647] […] The change of mean fluorescent intensity (MFI) of humanized candidates BGAh9239 and BGAh9179 was measured by flow cytometry. EC50 values for dose-dependent binding to native human FGFR2b, cyno FGFR2b, mouse FGFR2b, and human FGFR2c were determined using sigmoidal dose-response curves of nonlinear fit from GraphPad Prism™.

human FGFR2b [1] = target: T2, human FGFR2b (Homo sapiens, UniProt P21802); experiment: SPR affinity determination, human FGFR2b (Example 9); assay type: binding; conditions: for Kd: kd/ka
T2 sequence (P21802 22-822 isoform P21802-3 limits assumed): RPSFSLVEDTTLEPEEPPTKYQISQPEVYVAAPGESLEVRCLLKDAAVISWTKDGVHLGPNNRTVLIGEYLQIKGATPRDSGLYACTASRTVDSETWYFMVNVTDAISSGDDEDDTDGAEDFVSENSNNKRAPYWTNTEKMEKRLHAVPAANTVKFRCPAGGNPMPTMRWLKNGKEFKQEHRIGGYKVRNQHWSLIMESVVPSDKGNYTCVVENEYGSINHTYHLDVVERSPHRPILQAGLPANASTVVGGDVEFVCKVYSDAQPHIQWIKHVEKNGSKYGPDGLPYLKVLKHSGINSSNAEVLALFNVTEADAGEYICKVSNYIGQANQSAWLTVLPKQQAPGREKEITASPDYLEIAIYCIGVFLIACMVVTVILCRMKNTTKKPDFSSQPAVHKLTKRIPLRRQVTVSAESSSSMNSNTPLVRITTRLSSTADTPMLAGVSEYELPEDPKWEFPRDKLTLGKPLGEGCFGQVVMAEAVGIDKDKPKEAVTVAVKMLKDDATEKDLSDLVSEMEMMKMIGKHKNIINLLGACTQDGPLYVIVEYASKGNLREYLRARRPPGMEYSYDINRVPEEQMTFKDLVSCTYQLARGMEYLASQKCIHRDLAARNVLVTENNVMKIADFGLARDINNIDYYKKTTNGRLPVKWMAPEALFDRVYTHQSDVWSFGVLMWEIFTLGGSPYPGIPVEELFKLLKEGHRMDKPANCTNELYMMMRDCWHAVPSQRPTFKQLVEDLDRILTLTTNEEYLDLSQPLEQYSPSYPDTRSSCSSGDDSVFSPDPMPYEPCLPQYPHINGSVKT
Protocol: (§2) For affinity determination, antibodies were captured by anti-human Fc antibodies, and used in the affinity assay based on surface plasmon resonance (SPR) technology. SPR signals were analyzed to calculate the association rates (ka) and dissociation rates (kd) by using the one-to-one Langmuir binding model (BIA Evaluation Software, GE Life Sciences). The equilibrium dissociation constant (KD) was calculated as the ratio of kd/ka. Rmax represents the maximal feasible SPR signal generated by an interaction between a ligand-analyte pair and is represented in response units (RU). BGAh9239 and BGA9179 show similar binding profiles to human FGFR2b and cyno FGFR2b, and are similar to their parental antibodies BGAm1823 and BGAm1371, respectively.

Cyno FGFR2b [2] = experiment: ELISA binding to recombinant cyno FGFR2b (Example 11)
human FGFR2b [3] = target: T2, human FGFR2b; experiment: FACS binding to native FGFR2b on Expi293 cells, human FGFR2b (Example 10); conditions: Expi293 cells overexpressing human FGFR2b
Protocol: as §1

[4] = system: phosphorylated FGFR in SNU-16 cells; experiment: Inhibition of FGFR2 signaling in SNU-16 cells (Western blot of pFGFR); assay type: cell-based; conditions: antibody 10 μg/ml, 2 hours; for FGF10-induced FGFR phosphorylation: FGF10 10 ng/ml
Protocol: Inhibition of the FGFR2 signaling pathway by the humanized antibodies was investigated. SNU-16 cells were grown in RPMI-1640 medium with 10% FBS, collected and washed twice with free medium and then seeded in 12-well plates at 1.5E6 cells/well in serum-free RPMI-1640. The plates were incubated at 37° C., 5% CO2, and 95% humidity in an incubator overnight. Anti-FGFR2b antibodies at a concentration of 10 μg/ml were added to the assay plates. Recombinant human FGF7 or FGF10 protein (10 ng/ml) in the presence of heparin (5 μg/ml) was added to the assay plates. The plates were incubated in a 37° C., 5% CO2, 95% humidity incubator for 2 hours. Following 2 hours incubation, cells were collected and washed twice with cold PBS. NP40 lysis buffer containing 1×PMSF and 1× Protease plus phosphatase inhibitors were added to the cell pellets. The mixture was pipetted up and down to suspend the pellet. The mixture was inverted gently and each placed for 10 minutes on ice, for a total of 30 minutes. The mixture was centrifuged at 12000× rpm for 10 minutes to pellet the cell debris. The supernatant was transferred to a new tube to quantify total protein concentration by BCA Kit. The protein samples were then split and stored at −80° C. for further Western blotting to detect the expression of pFGFR and total FGFR2.
Western blotting procedure: The completely thawed protein samples were mixed with 4×SDS loading buffer and were heated for 10 min at 37° C. Then the mixtures were centrifuged at ˜3500×rpm for 5 min. Equal amounts of proteins were loaded into an SDS-PAGE gel, whereafter proteins were transferred to PVDF membranes using iBlot. The membranes were then subjected to Western blotting analysis, focusing on phosphorylated FGFR and total FGFR2.

human FGFR2b [5] = target: T2, human FGFR2b; experiment: ELISA binding to recombinant human FGFR2b (Example 11)
Human FGFR2c [6] = target: T3, Human FGFR2c (Homo sapiens, UniProt P21802); experiment: FACS binding on Expi293 cells, human FGFR2c (Example 10); conditions: for Emax (MFI): Expi293 cells overexpressing human FGFR2c
T3 sequence (P21802 22-821): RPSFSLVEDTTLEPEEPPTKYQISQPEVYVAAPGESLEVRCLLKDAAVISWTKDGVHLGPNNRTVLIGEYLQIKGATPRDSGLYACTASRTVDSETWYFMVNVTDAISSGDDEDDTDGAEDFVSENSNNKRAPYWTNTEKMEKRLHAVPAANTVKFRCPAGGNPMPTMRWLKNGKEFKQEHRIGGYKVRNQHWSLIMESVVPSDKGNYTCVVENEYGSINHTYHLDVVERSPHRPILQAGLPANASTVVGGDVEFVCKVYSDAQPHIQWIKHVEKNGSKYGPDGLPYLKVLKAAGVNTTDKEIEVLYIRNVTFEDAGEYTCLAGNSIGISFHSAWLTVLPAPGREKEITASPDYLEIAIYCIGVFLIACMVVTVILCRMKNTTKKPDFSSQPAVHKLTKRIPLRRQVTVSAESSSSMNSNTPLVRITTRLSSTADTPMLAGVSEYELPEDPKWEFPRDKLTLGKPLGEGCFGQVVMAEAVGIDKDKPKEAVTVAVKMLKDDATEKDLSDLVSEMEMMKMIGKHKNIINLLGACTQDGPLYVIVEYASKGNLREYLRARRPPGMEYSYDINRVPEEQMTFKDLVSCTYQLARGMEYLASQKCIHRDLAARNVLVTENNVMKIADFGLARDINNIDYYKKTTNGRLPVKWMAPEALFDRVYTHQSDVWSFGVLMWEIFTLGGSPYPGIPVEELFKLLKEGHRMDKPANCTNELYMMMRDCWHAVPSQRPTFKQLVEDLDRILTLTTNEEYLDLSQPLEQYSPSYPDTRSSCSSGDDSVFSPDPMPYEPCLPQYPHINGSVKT
Protocol: as §1

BaF3_hFGFR2b OE cells = experiment: Ligand-induced proliferation inhibition assay in BaF3_hFGFR2b OE cells; assay type: cell-based; conditions: antibody 10 μg/ml, heparin 5 μg/ml, 72 hours
Protocol: The inhibition activity of antibody on ligand-induced cell proliferation was evaluated in an FGFR2b engineered BaF3 cell line system (BaF3_hFGFR2b OE). BaF3 cells are dependent on interleukin-3 (IL-3) for growth. The BaF3 system allows for testing of kinases and kinase inhibitors. Some protein kinases can render BaF3 cells to be independent of IL-3, whereas kinase inhibitors antagonize this effect. Cells were seeded in 96-well plates at 30,000 cells/well in RPMI-1640 medium containing 10% fetal bovine serum. Anti-FGFR2b antibodies at a concentration of 10 μg/ml were added to the assay plates. Recombinant human FGF7 or FGF10 protein (40 ng/ml) in the presence of heparin (5 μg/ml) was added to the assay plates. The plates were incubated at 37° C., 5% CO2, 95% humidity in an incubator for 72 hours. Following incubation, 50 μl Cell Titer Glo reagent was added to each well and the plates were mixed for 1 min and then incubated at RT for 10 min. Luminescence signals were detected and recorded.
The Ba/F3 system is used to investigate downstream oncogenic signaling pathways and the susceptibility of driver variants to therapeutics. Driver-addicted Ba/F3 cells die when the driver-engaged signaling pathway is inhibited, and this effect can be rescued by re-introduction of […].
FIGS. 6 and 7 show the results of Ba/F3 proliferation assays. The net growth on Ba/F3 cells overexpressing FGFR2b is reported after treatment with anti-FGFR2b antibodies of the present disclosure. Normal Ba/F3 cells die shortly after withdrawal of exogenous […]. […] Comparator BGA2311 binds at the N-terminus and is not considered to be a ligand blocker. Thus, BGAm1371 may partially block the FGFR2b signaling pathway, such as the signaling pathway mediated by FGF7.

Cyno FGFR2b [7] = experiment: SPR affinity determination, cyno FGFR2b (Example 9); assay type: binding
Protocol: as §2

Human FGFR2c [8] = target: T3, Human FGFR2c; experiment: ELISA binding to recombinant human FGFR2c (Example 11); conditions: for Emax (A450): human FGFR2c; for binding to human FGFR2c: in words
[9] = target: T4, soluble human FGFR2b proteins (Homo sapiens, UniProt P21802); experiment: SPR binding kinetics (Biacore 8K, Example 5); conditions: room temperature
T4 construct: soluble human FGFR2b proteins (his tag, in-house generated); His tag; made in house
T4 sequence (P21802 22-378 isoform P21802-3 limits assumed): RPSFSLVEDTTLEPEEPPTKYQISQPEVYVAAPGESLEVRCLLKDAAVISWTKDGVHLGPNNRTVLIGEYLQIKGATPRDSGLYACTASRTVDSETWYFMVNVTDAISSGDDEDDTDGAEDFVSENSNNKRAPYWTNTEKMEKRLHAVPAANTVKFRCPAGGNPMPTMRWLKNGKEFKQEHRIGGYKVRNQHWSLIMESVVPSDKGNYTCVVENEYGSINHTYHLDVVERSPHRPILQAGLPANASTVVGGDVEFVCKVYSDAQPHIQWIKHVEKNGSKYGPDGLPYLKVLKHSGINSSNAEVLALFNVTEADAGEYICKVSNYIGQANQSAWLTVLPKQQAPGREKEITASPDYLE
Protocol: The binding affinity and kinetics of purified anti-FGFR2b antibodies were determined by surface plasmon resonance (Biacore 8K, GE Life Sciences) at room temperature. Briefly, mouse anti-human IgG Fc antibody was immobilized via amine coupling onto a activated CM5 biosensor chip (Cat. No. BR100530, GE Life Sciences). Purified monoclonal antibody candidates were flowed over the chip surface and captured by anti-human IgG antibody. Then a serial dilution of soluble human FGFR2b proteins (his tag, in-house generated) were injected over the antibodies captured surface and changes in surface plasmon resonance signals were analyzed to calculate the association rates (kon) and dissociation rates (koff) by using the one-to-one Langmuir binding model (BIA Evaluation Software, GE Life Sciences). The equilibrium dissociation constant (KD) was calculated as the ratio koff/kon.

| Molecule | EC50 (Mouse FGFR2b) [nM] | Emax (MFI) (Mouse FGFR2b) | Rmax (human FGFR2b [1]) [RU] | ka (human FGFR2b [1]) [M^−1S^−1] | kd (human FGFR2b [1]) [S^−1] | Kd (human FGFR2b [1]) [nM] | Emax (A450) (Cyno FGFR2b [2]) | EC50 (human FGFR2b [3]) [nM] | Emax (MFI) (human FGFR2b [3]) | FGF10-induced FGFR phosphorylation [4] | EC50 (human FGFR2b [5]) [nM] | Emax (A450) (human FGFR2b [5]) | Emax (MFI) (Human FGFR2c [6]) | ka (Cyno FGFR2b [7]) [M^−1S^−1] | kd (Cyno FGFR2b [7]) [S^−1] | Emax (A450) (Human FGFR2c [8]) | binding to human FGFR2c (Human FGFR2c [8]) | also measured |
| --- | --- | --- | --- | --- | --- | --- | --- | --- | --- | --- | --- | --- | --- | --- | --- | --- | --- | --- |
| B1 | 3.37 | 5194795 | 85.7 | 7.63E+04 | 1.85E−03 | 24.2 | 2.996 | 2.12 | 3092441 | down-regulation of phosphorylated FGFR | 0.0442 | 2.952 | 22634 | 7.35E+04 | 1.80E−03 | 0.116 | no detectable binding | FGF7-induced FGFR phosphorylation ([4]; FGF7 10 ng/ml): down-regulation of phosphorylated FGFR; inhibition of FGF7-induced BaF3_hFGFR2b cell proliferation (BaF3_hFGFR2b OE cells; FGF7 40 ng/ml): potently inhibit; inhibition of FGF10-induced BaF3_hFGFR2b cell proliferation (BaF3_hFGFR2b OE cells; FGF10 40 ng/ml): potently inhibit |
| B2 | 4.25 | 5145011 | 38.3 | 8.16E+04 | 1.78E−03 | 21.8 | 2.953 | 3.29 | 2977577 | little or no down-regulation | 0.0518 | 2.993 | 21749 | 8.37E+04 | 1.72E−03 | 0.086 | no detectable binding | ka ([9]; antibody captured): 80600 M⁻¹ s⁻¹; kd ([9]; antibody captured): 0.00112 s⁻¹; Kd ([9]; koff/kon): 13.9 nM; binding to native human FGFR2c (Human FGFR2c [6]; living Expi293 cells, in words): no detectable binding |
